The experiment has as its target T1, Shh receptor molecules on C3H10T1/2 cells (UniProt Q61115 1-1434).
T1 sequence (looked up): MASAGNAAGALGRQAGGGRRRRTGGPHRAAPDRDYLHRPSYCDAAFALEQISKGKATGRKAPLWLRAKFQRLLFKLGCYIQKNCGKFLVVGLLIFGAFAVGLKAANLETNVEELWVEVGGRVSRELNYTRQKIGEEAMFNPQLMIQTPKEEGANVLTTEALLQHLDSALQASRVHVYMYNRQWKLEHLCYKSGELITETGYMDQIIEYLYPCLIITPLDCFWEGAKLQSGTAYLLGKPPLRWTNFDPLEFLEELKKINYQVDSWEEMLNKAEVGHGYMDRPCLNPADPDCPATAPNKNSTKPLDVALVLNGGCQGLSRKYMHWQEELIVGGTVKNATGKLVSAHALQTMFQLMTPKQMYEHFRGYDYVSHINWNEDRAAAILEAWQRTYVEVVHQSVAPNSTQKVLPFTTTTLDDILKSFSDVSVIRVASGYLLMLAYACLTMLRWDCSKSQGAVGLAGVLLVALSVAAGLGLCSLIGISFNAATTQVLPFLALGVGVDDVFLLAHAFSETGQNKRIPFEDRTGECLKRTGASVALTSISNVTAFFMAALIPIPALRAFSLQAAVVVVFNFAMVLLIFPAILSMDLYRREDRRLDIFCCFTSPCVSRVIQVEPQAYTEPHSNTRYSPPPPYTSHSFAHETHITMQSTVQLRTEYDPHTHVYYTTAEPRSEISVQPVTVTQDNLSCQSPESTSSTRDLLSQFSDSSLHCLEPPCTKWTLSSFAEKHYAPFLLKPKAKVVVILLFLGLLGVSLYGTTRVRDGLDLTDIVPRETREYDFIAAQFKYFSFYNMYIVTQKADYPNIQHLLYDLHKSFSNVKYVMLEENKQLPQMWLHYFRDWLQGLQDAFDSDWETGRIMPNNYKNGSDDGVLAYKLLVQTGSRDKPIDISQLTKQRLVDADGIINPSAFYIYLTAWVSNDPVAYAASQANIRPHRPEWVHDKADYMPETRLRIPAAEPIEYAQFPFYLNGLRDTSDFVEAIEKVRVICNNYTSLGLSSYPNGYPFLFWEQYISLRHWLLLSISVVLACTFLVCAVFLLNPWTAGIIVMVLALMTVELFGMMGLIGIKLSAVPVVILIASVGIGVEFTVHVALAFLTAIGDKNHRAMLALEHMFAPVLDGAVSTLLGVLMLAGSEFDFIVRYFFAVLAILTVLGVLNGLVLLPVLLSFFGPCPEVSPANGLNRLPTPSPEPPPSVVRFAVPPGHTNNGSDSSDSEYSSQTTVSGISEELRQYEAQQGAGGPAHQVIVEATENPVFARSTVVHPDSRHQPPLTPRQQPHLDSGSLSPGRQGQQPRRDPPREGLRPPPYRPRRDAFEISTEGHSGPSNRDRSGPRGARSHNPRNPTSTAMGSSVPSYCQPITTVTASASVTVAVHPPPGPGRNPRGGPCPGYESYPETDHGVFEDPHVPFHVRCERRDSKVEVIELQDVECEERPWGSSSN
Description: cell-based or functional assay.

B1: mutant 24 (Shh C1II/A169C + S112C), Napth-modified (ligand)
chain: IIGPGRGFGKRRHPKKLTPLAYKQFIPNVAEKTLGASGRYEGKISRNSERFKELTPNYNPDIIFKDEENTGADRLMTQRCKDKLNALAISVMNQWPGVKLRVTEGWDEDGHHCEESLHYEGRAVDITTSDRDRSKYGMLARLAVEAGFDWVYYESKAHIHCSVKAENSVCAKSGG
modifications: N-(1-naphthyl) maleimide on thiol of Cys112, Cys169
For B1, the “Potency (IC50) in C3H10T1/2 assay (alkaline phosphatase induction)” value (“Potency (IC50) in C3H10T1/2 assay” for short) amounted to 0.3 µg/mL.

B2: mutant 22 (Shh C1II/A169C + S154C), 20 K PEG (ligand)
chain: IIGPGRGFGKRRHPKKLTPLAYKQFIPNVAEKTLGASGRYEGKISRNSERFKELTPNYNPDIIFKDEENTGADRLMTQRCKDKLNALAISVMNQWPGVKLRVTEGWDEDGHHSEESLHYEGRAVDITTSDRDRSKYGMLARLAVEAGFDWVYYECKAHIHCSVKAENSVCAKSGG
modifications: 20 K PEG maleimide on thiol of Cys154, Cys169
Regarding B2, the “Potency (IC50) in C3H10T1/2 assay” value came to 8 µg/mL.

B3: mutant 20 (Shh C1II/A169C + N68C), Napth-modified (ligand)
chain: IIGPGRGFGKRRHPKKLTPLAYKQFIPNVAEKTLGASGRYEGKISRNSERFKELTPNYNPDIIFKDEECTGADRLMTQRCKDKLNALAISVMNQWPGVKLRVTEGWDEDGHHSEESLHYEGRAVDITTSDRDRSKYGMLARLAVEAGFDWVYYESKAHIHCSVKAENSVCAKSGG
modifications: N-(1-naphthyl) maleimide on thiol of Cys68, Cys169
Regarding B3, the “Potency (IC50) in C3H10T1/2 assay” value came out at 0.3 µg/mL.

B4: mutant 21 (Shh C1II/A169C + N92C), Pyrene-modified (ligand)
chain: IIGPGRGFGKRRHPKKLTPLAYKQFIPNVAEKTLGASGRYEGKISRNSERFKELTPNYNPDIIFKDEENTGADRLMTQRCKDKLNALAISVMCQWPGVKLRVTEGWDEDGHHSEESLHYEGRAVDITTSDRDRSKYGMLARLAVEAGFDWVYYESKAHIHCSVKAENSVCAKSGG
modifications: N-(1-pyrenyl) maleimide on thiol of Cys92, Cys169
As to B4, the “Potency (IC50) in C3H10T1/2 assay” value is 3 µg/mL.

B5: mutant 19 (Shh C1II/A169C + Y57C), unmodified (ligand)
chain: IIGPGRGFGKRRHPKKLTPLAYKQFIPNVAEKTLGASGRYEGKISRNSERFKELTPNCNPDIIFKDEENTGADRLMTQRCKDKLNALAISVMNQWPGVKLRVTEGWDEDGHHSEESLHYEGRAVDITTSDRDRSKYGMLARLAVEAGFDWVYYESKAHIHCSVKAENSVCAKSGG
Take B5: the “Potency (IC50) in C3H10T1/2 assay” value is 0.2 µg/mL.

B6: mutant 18 (Shh C1II/A169C + N46C), NEM-modified (ligand)
chain: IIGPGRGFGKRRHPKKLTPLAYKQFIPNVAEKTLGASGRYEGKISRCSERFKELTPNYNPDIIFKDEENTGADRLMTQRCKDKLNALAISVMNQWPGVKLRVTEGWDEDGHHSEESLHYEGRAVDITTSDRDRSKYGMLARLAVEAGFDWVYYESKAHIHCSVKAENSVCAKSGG
modifications: N-ethyl maleimide on thiol of Cys46, Cys169
Regarding B6, the “Potency (IC50) in C3H10T1/2 assay” value came out at 0.2 µg/mL.

B7: mutant 21 (Shh C1II/A169C + N92C), Napth-modified (ligand)
chain: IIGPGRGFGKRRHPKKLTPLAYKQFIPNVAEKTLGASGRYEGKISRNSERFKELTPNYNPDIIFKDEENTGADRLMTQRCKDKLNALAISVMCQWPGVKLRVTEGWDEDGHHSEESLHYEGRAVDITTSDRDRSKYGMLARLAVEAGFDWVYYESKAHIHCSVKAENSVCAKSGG
modifications: N-(1-naphthyl) maleimide on thiol of Cys92, Cys169
Take B7: the “Potency (IC50) in C3H10T1/2 assay” value stood at 4 µg/mL.

B8: mutant 18 (Shh C1II/A169C + N46C), HPE-modified (ligand)
chain: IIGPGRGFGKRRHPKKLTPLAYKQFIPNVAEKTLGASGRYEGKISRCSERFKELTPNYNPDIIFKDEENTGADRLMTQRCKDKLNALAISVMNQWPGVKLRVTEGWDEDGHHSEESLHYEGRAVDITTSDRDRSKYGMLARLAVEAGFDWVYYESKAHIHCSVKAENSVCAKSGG
modifications: beta-(4-hydroxyphenyl) ethylmaleimide on thiol of Cys46, Cys169
As for B8, the “Potency (IC50) in C3H10T1/2 assay” value was determined as 0.4 µg/mL.

B9: mutant 17 (Shh C1II/A169C + N27C), unmodified (ligand)
chain: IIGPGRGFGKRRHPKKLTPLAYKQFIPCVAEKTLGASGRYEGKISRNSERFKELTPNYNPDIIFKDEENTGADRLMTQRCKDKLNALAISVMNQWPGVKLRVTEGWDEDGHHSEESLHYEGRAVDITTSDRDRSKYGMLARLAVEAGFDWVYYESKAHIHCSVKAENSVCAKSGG
On to B9, for which the “Potency (IC50) in C3H10T1/2 assay” value amounted to 0.4 µg/mL.

B10: mutant 17 (Shh C1II/A169C + N27C), NEM-modified (ligand)
chain: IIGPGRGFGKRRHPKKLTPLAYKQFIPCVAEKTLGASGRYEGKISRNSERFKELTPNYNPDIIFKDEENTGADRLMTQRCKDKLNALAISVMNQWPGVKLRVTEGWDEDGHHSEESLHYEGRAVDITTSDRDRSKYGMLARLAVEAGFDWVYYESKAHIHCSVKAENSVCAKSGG
modifications: N-ethyl maleimide on thiol of Cys27, Cys169
Consider B10, for which the “Potency (IC50) in C3H10T1/2 assay” value was determined as 0.3 µg/mL.

B11: mutant 24 (Shh C1II/A169C + S112C), NEM-modified (ligand)
chain: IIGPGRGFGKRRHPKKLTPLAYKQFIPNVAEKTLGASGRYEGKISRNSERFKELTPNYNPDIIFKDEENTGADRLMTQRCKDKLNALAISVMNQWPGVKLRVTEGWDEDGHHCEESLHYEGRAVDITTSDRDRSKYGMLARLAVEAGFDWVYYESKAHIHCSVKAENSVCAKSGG
modifications: N-ethyl maleimide on thiol of Cys112, Cys169
Consider B11, for which the “Potency (IC50) in C3H10T1/2 assay” value amounted to 0.2 µg/mL.

B12: mutant 17 (Shh C1II/A169C + N27C), 20 K PEG (ligand)
chain: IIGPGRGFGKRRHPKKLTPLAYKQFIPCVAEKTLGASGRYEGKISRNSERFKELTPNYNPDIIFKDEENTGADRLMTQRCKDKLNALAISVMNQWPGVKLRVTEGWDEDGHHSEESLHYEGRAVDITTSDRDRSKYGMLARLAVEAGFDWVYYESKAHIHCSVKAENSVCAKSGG
modifications: 20 K PEG maleimide on thiol of Cys27, Cys169
Take B12: the “Potency (IC50) in C3H10T1/2 assay” value came to 8 µg/mL.

B13: mutant 20 (Shh C1II/A169C + N68C), HPE-modified (ligand)
chain: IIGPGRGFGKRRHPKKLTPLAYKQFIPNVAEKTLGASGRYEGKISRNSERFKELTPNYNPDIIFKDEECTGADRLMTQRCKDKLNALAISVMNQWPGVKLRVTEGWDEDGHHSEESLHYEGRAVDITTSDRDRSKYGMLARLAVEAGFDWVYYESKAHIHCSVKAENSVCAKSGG
modifications: beta-(4-hydroxyphenyl) ethylmaleimide on thiol of Cys68, Cys169
As for B13, the “Potency (IC50) in C3H10T1/2 assay” value is 0.2 µg/mL.

B14: mutant 22 (Shh C1II/A169C + S154C), HPE-modified (ligand)
chain: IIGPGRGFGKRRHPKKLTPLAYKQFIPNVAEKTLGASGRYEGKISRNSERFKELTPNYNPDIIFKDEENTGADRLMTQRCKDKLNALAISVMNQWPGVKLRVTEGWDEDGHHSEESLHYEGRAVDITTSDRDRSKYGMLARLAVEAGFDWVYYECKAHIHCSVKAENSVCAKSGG
modifications: beta-(4-hydroxyphenyl) ethylmaleimide on thiol of Cys154, Cys169
Take B14: the “Potency (IC50) in C3H10T1/2 assay” value is 2 µg/mL.

B15: mutant 21 (Shh C1II/A169C + N92C), 5 K PEG (ligand)
chain: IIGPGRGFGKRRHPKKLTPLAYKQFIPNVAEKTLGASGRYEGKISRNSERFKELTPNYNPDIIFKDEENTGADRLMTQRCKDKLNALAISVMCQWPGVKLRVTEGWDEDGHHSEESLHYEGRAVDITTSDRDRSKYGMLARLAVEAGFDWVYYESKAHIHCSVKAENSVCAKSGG
modifications: 5 K PEG maleimide on thiol of Cys92, Cys169
For the molecule B15, the “Potency (IC50) in C3H10T1/2 assay” value is more than 20 µg/mL.

B16: mutant 18 (Shh C1II/A169C + N46C), 5 K PEG (ligand)
chain: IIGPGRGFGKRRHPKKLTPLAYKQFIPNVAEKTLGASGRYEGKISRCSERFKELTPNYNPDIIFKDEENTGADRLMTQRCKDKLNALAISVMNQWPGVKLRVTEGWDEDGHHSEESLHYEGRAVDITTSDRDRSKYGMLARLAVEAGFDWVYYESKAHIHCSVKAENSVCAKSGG
modifications: 5 K PEG maleimide on thiol of Cys46, Cys169
Regarding B16, the “Potency (IC50) in C3H10T1/2 assay” value was 0.3 µg/mL.

B17: mutant 18 (Shh C1II/A169C + N46C), Pyrene-modified (ligand)
chain: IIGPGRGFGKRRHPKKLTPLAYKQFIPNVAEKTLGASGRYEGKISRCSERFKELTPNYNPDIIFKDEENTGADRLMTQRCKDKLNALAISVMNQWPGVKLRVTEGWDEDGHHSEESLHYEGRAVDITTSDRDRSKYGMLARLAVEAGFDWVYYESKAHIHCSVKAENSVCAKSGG
modifications: N-(1-pyrenyl) maleimide on thiol of Cys46, Cys169
As for B17, the “Potency (IC50) in C3H10T1/2 assay” value was 0.5 µg/mL.

B18: mutant 22 (Shh C1II/A169C + S154C), unmodified (ligand)
chain: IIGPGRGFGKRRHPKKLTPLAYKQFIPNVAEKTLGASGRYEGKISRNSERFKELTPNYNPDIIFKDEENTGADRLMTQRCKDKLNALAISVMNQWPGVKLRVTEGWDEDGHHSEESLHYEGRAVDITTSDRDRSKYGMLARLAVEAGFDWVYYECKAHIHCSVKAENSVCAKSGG
Regarding B18, the “Potency (IC50) in C3H10T1/2 assay” value was determined as 1 µg/mL.

B19: mutant 24 (Shh C1II/A169C + S112C), 20 K PEG (ligand)
chain: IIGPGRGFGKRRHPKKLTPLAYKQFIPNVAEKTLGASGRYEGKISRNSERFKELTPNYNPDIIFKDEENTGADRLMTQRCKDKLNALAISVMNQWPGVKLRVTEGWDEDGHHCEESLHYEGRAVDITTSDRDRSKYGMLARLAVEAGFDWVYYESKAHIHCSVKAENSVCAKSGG
modifications: 20 K PEG maleimide on thiol of Cys112, Cys169
B19: the “Potency (IC50) in C3H10T1/2 assay” value was 2 µg/mL.

B20: mutant 24 (Shh C1II/A169C + S112C), HPE-modified (ligand)
chain: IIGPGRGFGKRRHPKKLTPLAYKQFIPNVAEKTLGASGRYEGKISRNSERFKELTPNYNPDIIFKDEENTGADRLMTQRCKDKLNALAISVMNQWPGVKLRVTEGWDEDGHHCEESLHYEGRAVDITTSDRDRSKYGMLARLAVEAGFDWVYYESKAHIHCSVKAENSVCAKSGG
modifications: beta-(4-hydroxyphenyl) ethylmaleimide on thiol of Cys112, Cys169
B20: the “Potency (IC50) in C3H10T1/2 assay” value was found to be 0.2 µg/mL.

B21: mutant 19 (Shh C1II/A169C + Y57C), NEM-modified (ligand)
chain: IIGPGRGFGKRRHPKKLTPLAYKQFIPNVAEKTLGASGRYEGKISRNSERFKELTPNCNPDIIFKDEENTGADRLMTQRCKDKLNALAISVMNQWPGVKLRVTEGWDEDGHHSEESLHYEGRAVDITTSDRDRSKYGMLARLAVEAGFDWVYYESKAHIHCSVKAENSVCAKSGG
modifications: N-ethyl maleimide on thiol of Cys57, Cys169
In the case of B21, the “Potency (IC50) in C3H10T1/2 assay” value turned out to be 0.2 µg/mL.

B22: mutant 19 (Shh C1II/A169C + Y57C), 20 K PEG (ligand)
chain: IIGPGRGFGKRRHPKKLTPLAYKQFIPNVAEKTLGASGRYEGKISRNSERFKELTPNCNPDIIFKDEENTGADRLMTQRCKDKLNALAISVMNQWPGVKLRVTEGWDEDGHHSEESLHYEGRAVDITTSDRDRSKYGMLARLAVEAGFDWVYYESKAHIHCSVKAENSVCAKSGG
modifications: 20 K PEG maleimide on thiol of Cys57, Cys169
B22: the “Potency (IC50) in C3H10T1/2 assay” value amounted to 0.3 µg/mL.

B23: mutant 17 (Shh C1II/A169C + N27C), Pyrene-modified (ligand)
chain: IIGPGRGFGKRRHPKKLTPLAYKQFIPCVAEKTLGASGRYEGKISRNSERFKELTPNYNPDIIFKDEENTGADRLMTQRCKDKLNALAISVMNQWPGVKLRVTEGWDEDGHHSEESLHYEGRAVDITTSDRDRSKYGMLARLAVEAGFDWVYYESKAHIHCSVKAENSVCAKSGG
modifications: N-(1-pyrenyl) maleimide on thiol of Cys27, Cys169
Regarding B23, the “Potency (IC50) in C3H10T1/2 assay” value was determined as 3 µg/mL.

B24: mutant 22 (Shh C1II/A169C + S154C), Pyrene-modified (ligand)
chain: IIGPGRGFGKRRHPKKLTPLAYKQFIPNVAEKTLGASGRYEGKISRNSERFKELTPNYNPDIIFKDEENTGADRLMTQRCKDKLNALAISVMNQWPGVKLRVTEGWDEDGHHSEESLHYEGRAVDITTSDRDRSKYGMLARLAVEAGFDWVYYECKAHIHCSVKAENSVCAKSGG
modifications: N-(1-pyrenyl) maleimide on thiol of Cys154, Cys169
Consider B24, for which the “Potency (IC50) in C3H10T1/2 assay” value worked out at 3 µg/mL.

B25: mutant 20 (Shh C1II/A169C + N68C), NEM-modified (ligand)
chain: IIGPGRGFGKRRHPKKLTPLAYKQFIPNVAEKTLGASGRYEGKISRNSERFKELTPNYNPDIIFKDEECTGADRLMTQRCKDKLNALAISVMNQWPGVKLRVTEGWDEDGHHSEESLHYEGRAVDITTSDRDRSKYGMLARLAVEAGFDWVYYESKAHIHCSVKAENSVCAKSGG
modifications: N-ethyl maleimide on thiol of Cys68, Cys169
Consider B25, for which the “Potency (IC50) in C3H10T1/2 assay” value came to 0.2 µg/mL.

B26: mutant 20 (Shh C1II/A169C + N68C), 20 K PEG (ligand)
chain: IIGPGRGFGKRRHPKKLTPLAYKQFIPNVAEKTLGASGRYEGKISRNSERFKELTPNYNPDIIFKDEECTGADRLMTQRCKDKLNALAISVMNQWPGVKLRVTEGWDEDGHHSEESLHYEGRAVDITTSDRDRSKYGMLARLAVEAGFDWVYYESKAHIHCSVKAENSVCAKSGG
modifications: 20 K PEG maleimide on thiol of Cys68, Cys169
Regarding B26, the “Potency (IC50) in C3H10T1/2 assay” value was found to be 0.4 µg/mL.

The record behind these values is US20040038876A1 (published 2004).
